From publication PMC7616481, “The functional evolution of collembolan Ubx on the regulation of abdominal appendage formation”

Key:
[1] = target: FcUbx isoform 1 (FcU1, FcUbx1), N-terminally truncated (Folsomia candida, UniProt A0AA95ZMF5 39-293); assay: EMSA; 0.2-1.5 pmol FcU1; 20 ul with EMSA buffer (5x: 0.1 M Tris, 25% glycerol, 0.2 mg/ml BSA), MgCl2 (2.5 M stock), DTT (1 M stock), poly(dI-dC), 20 ng Cy5 probe; 25 min at 25 C; 12% native PAGE on ice; pH not stated; details: protein: recombinant; tags: GST; label: 5'-Cy5 (both strands)
[2] = target: FcUbx isoform 2 (FcU2, FcUbx2), N-terminally truncated (Folsomia candida, UniProt A0AA96CC73 39-288); assay: EMSA; 0.4-3 pmol FcU2; 20 ul with EMSA buffer (5x: 0.1 M Tris, 25% glycerol, 0.2 mg/ml BSA), MgCl2 (2.5 M stock), DTT (1 M stock), poly(dI-dC), 20 ng Cy5 probe; 25 min at 25 C; 12% native PAGE on ice; pH not stated; details: protein: recombinant; tags: GST; label: 5'-Cy5 (both strands)

B1: DMXR (dsDNA)
DNA 1: GACAATATTTGGGAAATTAAATCATTCCCGCGGACAGTTTTATAGTGC
DNA 2: GCACTATAAAACTGTCCGCGGGAATGATTTAATTTCCCAAATATTGTC
binding result [1]: binds | binding result [2]: binds
